T1: CR-Fc (UniProt P13385 31-169)
T1 construct: not shown: Fc part; not described
T1 sequence (looked up): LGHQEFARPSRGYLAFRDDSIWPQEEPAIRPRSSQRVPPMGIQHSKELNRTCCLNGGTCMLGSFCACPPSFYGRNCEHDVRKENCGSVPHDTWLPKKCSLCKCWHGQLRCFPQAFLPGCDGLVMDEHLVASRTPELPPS


Legend:
[1] = biological target: T2, LTβR-Fc (UniProt P36941 31-227); assay: Biacore, Fc fusion protein immobilized on the chip
T2 construct: Control protein on the Biacore chip; also called LT-beta receptor-Fc; control LTβR-Fc protein; not shown: Fc part; not described
From the text: We also analyzed the Cripto-Activin B interaction using Biacore. We discovered that Activin B directly binds CR-Fc immobilized on a Biacore chip with a high intensity, but not to a control LTβR-Fc protein (FIG. 10). We also observed that Activin A binding to CR-Fc was negligible.

[2] = biological target: T1, CR-Fc; assay: Biacore, competition format in solution
[3] = biological target: T1, CR-Fc; assay: ELISA, ligand coated on the plate, CR-Fc detected with anti-Fc-alkaline phosphatase
Protocol: We discovered that Cripto binds directly to Activin B. We coated ELISA plates with purified Activin B, Activin A, TGFβ1, GDNF or BMP2 and incubated with CR-Fc. We then added anti-Fc antibody conjugated to alkaline phosphatase and monitored binding by adding an alkaline phosphatase substrate and developing. We observed that CR-Fc bound to wells containing Activin B, but not to Activin A or the other ligands (FIG. 8). In addition, we pre-incubated CR-Fc with Activin A or B in solution before adding to an Activin B coated plate and observed that only Activin B inhibited binding (FIG. 9).

T2 sequence (P36941 31-227): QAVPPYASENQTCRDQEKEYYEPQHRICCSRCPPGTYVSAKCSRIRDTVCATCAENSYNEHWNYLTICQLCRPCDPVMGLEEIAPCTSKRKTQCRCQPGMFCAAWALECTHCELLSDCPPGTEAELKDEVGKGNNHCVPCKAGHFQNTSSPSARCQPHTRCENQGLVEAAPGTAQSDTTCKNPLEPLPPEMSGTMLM

Binder | binding result [1] | Kd [2] | binding result [3]
Activin B (ligand, UniProt P09529 293-407, looked up) GLECDGRTNLCCRQQFFIDFRLIGWNDWIIAPTGYYGNYCEGSCPAYLAGVPGSASSFHTAVVNQYRMRGLNPGTVNSCCIPTKLSTMSMLYFDDEYNIVKRDVPNMIVEECGCA | no binding | ~1 nM | –
Activin A (ligand, UniProt P08476 311-426, looked up) GLECDGKVNICCKKQFFVSFKDIGWNDWIIAPSGYHANYCEGECPSHIAGTSGSSLSFHSTVINHYRMRGHSPFANLKSCCVPTKLRPMSMLYYDDGQNIIKKDIQNMIVEECGCS | – | – | no binding
GDNF (ligand, UniProt P39905 78-211, looked up) SPDKQMAVLPRRERNRQAAAANPENSRGKGRRGQRGKNRGCVLTAIHLNVTDLGLGYETKEELIFRYCSGSCDAAETTYDKILKNLSRNRRLVSDKVGQACCRPIAFDDDLSFLDDNLVYHILRKHSAKRCGCI | – | – | no binding
BMP2 (ligand, UniProt P12643 283-396, looked up) QAKHKQRKRLKSSCKRHPLYVDFSDVGWNDWIVAPPGYHAFYCHGECPFPLADHLNSTNHAIVQTLVNSVNSKIPKACCVPTELSAISMLYLDENEKVVLKNYQDMVVEGCGCR | – | – | no binding

— patent publication US20050255117A1 (Biogen, published 2005)
